What all share (test): cells, lysate or membranes
Substrate in data set [1]: O=C1C[C@@H](c2ccc(O)c(O)c2)Oc2cc(O)cc(O)c21
Particulars: NADPH, potassium phosphate, product luteolin.

Substrate in data set [2]: O=C1C[C@@H](c2ccc(O)cc2)Oc2cc(O)cc(O)c21
Particulars: apparent Km; NADPH, potassium phosphate, optimized conditions (about pH 7.5, 37 °C); product apigenin; pH 7.5; 37.0 °C.

Substrate in data set [3]: O=C1C[C@@H](c2ccc(O)cc2)Oc2cc(O)ccc21
Particulars: apparent Km; NADPH, potassium phosphate, optimized conditions (about pH 7.5, 37 °C); product 7,4'-dihydroxyflavone; pH 7.5; 37.0 °C.

Where [4] appears, read: apparent Km, optimized conditions (about pH 7.5, 37 °C), pH 7.5, 37.0 °C.

Positions count from the first letter of the chain named. Names and notes keep the numbering of the source.

B1: LjFNSII-1.1 (Lonicera japonica; S122A) (protein)
chain: MWIFDLTISFTTLLFLIFTTALLLLLKVFKKNHKLRPPPSPFTLPIIGHLHLLGPLIHQSFHRLSTLYGPLIQLKIGYIPCVVASTPELAKEFLKTHELAFSSRKHSAAIKLLTYDVSFAFAPYGPYWKFIKKTCTFELLGTRNMNHFLPIRTNEIRRFLQVMLEKAKASEGVNVTEELIKLTNNVISQMMFSTRSSGTEGEAEEMRTLVREVTQIFGEFNVSDFIKLCKNIDIGGFKKRSKDIQKRYDALLEKIISERESERARRGKNRETLGEEGGKDFLDMMLDTMEDGKCEVEITRDHIKALVLDFLTAATDTTAIAVEWTLAELISNPEVFDKAREEIDKVVGKHRLVTELDTPNLPYIHAIIKESFRLHPPIPLLIRKSVQDCTVGGYHISANTILFVNIWAIGRNPKYWESPMKFWPERFLESNGPGPVGSMDIKGHHYELLPFGSGRRGCPGMALAMQELPVVLAAMIQCFNWKPVTLDGEELDMSERPGLTAPRAHDLVCVPSARINSFDNF
By kcat is commonly meant the number of substrate molecules converted per active site and unit of time at saturation. On to B1, for which, in data set [1] (optimized conditions), the Km worked out at 10.53 ± 1.18 µM and the kcat worked out at 6.08 ± 0.5 s⁻¹.

B2: LjFNSII-1.1 (Lonicera japonica) (protein)
chain: B1 chain with A122S
As a reminder, the Vmax is the top rate of the reaction or transport when substrate is in excess. The kcat/Km is the turnover number divided by the Michaelis constant. On to B2, for which, in data set [1] (setting [4]), the Km is recorded as 5.07 (0.05) μM, the Vmax came to 0.267 µM/min, the catalytic constant (kcat) turned out to be 2.56 s⁻¹ and the specificity constant (kcat/Km) was determined as 504000 M⁻¹ s⁻¹. In addition, in data set [2], the Km is 9.93 (0.64) μM, the maximal velocity (Vmax) is 0.166 µM/min, the kcat was determined as 1.59 s⁻¹ and the kcat/Km was 160000 M⁻¹ s⁻¹. Besides, in data set [3], the Km is 6.48 (0.26) μM, the maximal velocity (Vmax) is 0.461 µM/min, the kcat worked out at 4.41 s⁻¹ and the catalytic efficiency (kcat/Km) was found to be 681000 M⁻¹ s⁻¹.

B3: LjFNSII-2.1 (Lonicera japonica) (protein)
chain: B1 chain with A122S, K242E
As for B3, in data set [1] (setting [4]), the Km was 2.05 (0.04) μM, the Vmax is 0.0984 µM/min, the kcat turned out to be 0.94 s⁻¹ and the kcat/Km is 460000 M⁻¹ s⁻¹. Further, in data set [2], the Km is on record as 1.63 (0.06) μM, the maximum rate (Vmax) came out at 0.0288 µM/min, the kcat was 0.28 s⁻¹ and the kcat/Km was 170000 M⁻¹ s⁻¹. In data set [3], the Km is recorded as 2.56 (0.03) μM, the Vmax was 0.124 µM/min, the kcat stood at 1.18 s⁻¹ and the specificity constant (kcat/Km) is 462000 M⁻¹ s⁻¹.

B4: LmFNSII-1.1 (Lonicera macranthoides; V204M) (protein)
chain: MLIFDLTISFTTLLFLIFTTALLLKVFKKNHKLQPPPSPFTLPIIGHLHLLGPLIHQSFHRLSTLYGPLIQLKIGYIPCVVASTPELAKEFLKTHELAFSSRKHSAAIKLLTYDVSFAFAPYGPYWKFIKKTCTFELLGTRNMNHFLPIRTNEIRRFLQVMLEKAKASEGVNVTEELIKLTNNVISQMMFSTRSSGTEGEAEEMRTLVREVTQIFGEFNVSDFIKLCKNIDIGGFKKRSEDIQKRYDALLEKIISERESERARRGKNRETLGEEGGKDFLDMMLDTMEDGKCEVEITRDHIKALVLDFLTAATDTTAIAVEWTLAELISNPEVFDKAREEIDKVVGKHRLVTELDTPNLPYIHAIIKESFRLHPPIPLVIRKSVQDCTVGGYHISANTILFINIWAIGRNPKYWESPMKFWPERFLESNEPGSVGSTDIKGHHYELLPFGSGRRGCPGMALAMQELPVVLAAMIQCFNWKPVTLDGEELDMSERPGLTAPRAHDLVCVPSARINSFDNF
Consider B4, for which, in data set [1] (optimized conditions), the Km was found to be 8.47 ± 0.52 µM and the turnover number (kcat) came to 5.08 ± 0.30 s⁻¹.

B5: LmFNSII-1.1 (Lonicera macranthoides) (protein)
chain: B4 chain with M204V
In the case of B5, in data set [1] (setting [4]), the Km is 3.09 (0.17) μM, the Vmax turned out to be 0.0462 µM/min, the kcat is 0.44 s⁻¹ and the catalytic efficiency (kcat/Km) was 142000 M⁻¹ s⁻¹. In addition, in data set [2], the Km was 1.63 (0.12) μM, the maximum rate (Vmax) was 0.021 µM/min, the kcat amounted to 0.2 s⁻¹ and the kcat/Km was found to be 122000 M⁻¹ s⁻¹. In addition, in data set [3], the Km is 2.38 (0.07) μM, the Vmax is 0.0738 µM/min, the kcat came to 0.7 s⁻¹ and the kcat/Km turned out to be 295000 M⁻¹ s⁻¹.

The record behind these values is article PMC4709722, “Flavone synthases from Lonicera japonica and L. macranthoides reveal differential flavone accumulation” (Scientific Reports, 2016).
